The chains are these.
B1: BMS3h-38 (other)
VH: EVQLLESGGGLVQPGGSLRLSCAASGFTFEEEEMIWVRQAPGKGLEWVSAISGSGGSTYYADSVKGRFTISRDNSKNTLYLQMNSLRAEDTAVYYCAKEPFRFDYWGQGTLVTVSS
notes: domain antibody (dAb): single human VH domain
B2: BMS3h-37 (other)
VH: EVQLLESGGGLVQPGGSLRLSCAASGFTFEWYEMQWVRQAPGKGLEWVSAISGDGYRTYYADSVKGRFTISRDNSKNTLYLQMNSLRAEDTAVYYCAKELGYFDYWGQGTLVTVSS
notes: as for B1
B3: BMS3h-56 (other)
VH: EVQLLESGGGLVQPGGSLRLSCAASGFTFRDYEMWWVRQAPGKGLERVSAINPQGTRTYYADSVKGRFTISRDNSKNTLYLQMNSLRAEDTAVYYCAKLPFIFDYWGQGTLVTVSS
notes: as for B1
B4: BMS3h-198 (other)
VH: EVQLLESGGGLVQPGGSLRLSCAASGFTFAGYEMWWVRQAPGKGLERVSAISGSGGSTYYADSVKGRFTISRDDSKNTLYLQMNSLRAEDTAVYYCAKDPYSFDYWGQGTLVTVSS
notes: as for B1
B5: BMS3h-41 (other)
VH: EVQLLESGGGLVQPGGSLRLSCAASGFTFTEYEMIWVRQAPGKGLEWVSSISGNGANTYYADSVKGRFTISRDNSKNTLYLQMNSLRAEDTAVYYCAKEPLRFDYWGQGTLVTVSS
notes: as for B1
B6: BMS3h-202-5 (other)
VH: EVQLLESGGGLVQPGGSLRLSCAASGFTFPTAEMLWVRQAPGKGLEWVSSISASGGSTYYADSVKGRFTISRDNSKNTLYLQMNSLRAEDTAVYYCAKEPVSYVATFDYWGQGTLVTVSS
B7: BMS3h-202-10 (other)
VH: EVQLLESGGGLVQPGGSLRLSCAASGFTFPTAEMLWVRQAPGKGLEWVSSISASGGSTYYADSVKGRFTISRDNSKNTLYLQMNSLRAEDTAVYYCAKEPVYYVATFDYWGQGTLVTVSS
B8: BMS3h-202-11 (other)
VH: EVQLLESGGGLVQPGGSLRLSCAASGFTFPTAEMLWVRKAPGKGLEWVSSISASGGSTYYADSVKGRFTISRDNSKNTLYLQMNSLRAEDAAVYYCAKEPVSYVATFDYWGQGTLVTVSS
B9: BMS3h-193-29 (other)
VL: DIQMTQSPSSLSASVGDRVTITCRASQTIERRLNWYQQKPGKAPKLLIYLATRLQSGVPSRFSGSGSGTDFTLTISSLQPEDFATYYCHQYESPPLTFGQGTKVEIKR
B10: BMS3h-217 (other)
VL: DIQMTQSPSSLSASVGDRVTITCRASHFIGTLLSWYQQKPGKAPKLLITYGSLLQSGVPSRFSGSGSGTDFTLTISSLQPEDFATYYCGQGVLWPATFGQGTKVEIKR
B11: BMS3h-217-17 (other)
VL: DIQIIQSPSSLSASVGDRVTITCRASHFIGTLLSWYQQKPGKAPKLLITYGSLLQSGVPSRFSGSGSGTDFTLTISSLQPEDFATYYCGQGVLWPPTFGQGTKVEIKR
B12: BMS3h-217-7 (other)
VL: DIQMTQSPSSLSASVGDRVTITCRASHFIGSLLSWYQHKPGKAPKLLITYGSLLQSGVPSRFSGSGSGTDFTLTISSLQPEDFATYYCGQGVLWPATFGQGTKVEIKR
B13: BMS3h-217-31 (other)
VL: DIQMTQSPSSLSASVGDRVTITCRASHFIGTLLSWYQQKPGKAPKLLITYGSLLQSGVPSRFSGSGFGTDFTLTISSLQPEDFATYYCGQEVLWPATFGQGTKVEIKR
B14: BMS3h-217-9 (other)
VL: DIQMTQSPSSLSASVGDRVTITCRASHFIGTLLSWYQHKPGKAPKLLITYGSMLQSGVPSRFSGSGSGTDFTLTISSLQPEDFATYYCGQGVLWPATFGQGTKVEIKR
B15: BMS3h-217-30 (other)
VL: DIQMTQSPSSLSASVGDRVTITCRASHFIGTLLSWYQLKPGKAPKLLITYGSWLQSGVPSRFSGSGSGTDFTLTISSLQPEDFATYYCGQGVLWPATFGQGTKVEIKR
B16: BMS3h-217-2305 (other)
VL: DIQMTQSPSSLSASVGDRVTITCRASHFIGSLLSWYQVKPGKAPKLLITWASYLQSGVPSRFSGSGSGTDFTLTISSLQPEDFATYYCGQGVLWPATFGQGTTVEIKR
B17: BMS3h-198-1 (other)
VH: EVQLLESGGGLVQPGGSLRLSCAASGSTIAGYEMWWVRQAPGKGLERVSAISGSGGSTYYADSVKGRFTISRDDSKNTLYLQMNSLRAEDTAVYYCARDPYSFDYWGQGTLVTVSS
B18: BMS3h-198-5 (other)
VH: EVQLLESGGGLVQPGGSLRLSCAASGFTFAGYEMWWVRQAPGKGLERVSAISGSGGSTYYADSVKGRFTISRDDSKNTLYLQMNSLRAEDTAVYHCAKEPYSYDYWGQGTLVTVSS
B19: BMS3h-198-24 (other)
VH: EVQLLESGGGLVQPGGSLRLSCAASGFTFAGYEMWWVRQAPGKGLERVSAISGSGGSTYYADSVKGRFTISRDDSKNTLYLQMNSLRAEDTAVYYCAKEPYSFDSWGQGTLVTVSS
B20: BMS3h-198-28 (other)
VH: EVQLLESGGGLVQPGGSLRLSCAASGFTFAGYEMWWFRQAPGKGLERVSAISGSGGSTYYADSVKGRFTISRDDSKNTLYLQMNSLRAEDTAVYYCAKDPYSFDNWGQGTLVTVSS
B21: BMS3h-198-19 (other)
VH: EVQLLESGGGLVQPGGSLRLSCAASGFTFAGYELWWVRQAPGKGLERVSAISGSGGSTYYADSVKGRFTISRDDSKNTLYLQMNSLRAEDTAVYYCARDPYSFDYRGQGTLVTVSS
B22: BMS3h-198-2 (other)
VH: EVQPLESGGGLVQPGGSLRLSCAASGFTFAGYEMWWVRQAPGKGLERISAISGSGGSTYYADSVKGRFTISRDDSKNTLYLQMNSLRAEDTAVYYCARDPYSFDYWGQGTLVTVSS
B23: BMS3h-202-5 (other)
VH: EVQLLESGGGLVQPGGSLRLSCAASGFTFPTAEMLWVRQAPGKGLEWVSSISASGGSTYYADSVKGRFTISRDNSKNTLYLQMNSLRAEDTAVYYCAKEPVSYVATFDYWGQGTLVTVSS
notes: as for B1
B24: BMS3h-193-25 (other)
VL: DIQMTQSPSSLSASVGDRVTITCRASQTIERRLNWYQQKPGKAPRLLIYLATRLQSGVPSRFSGSGSGTDFTLTISSLQPEDFATYYCHQYESPPLTFGQGTKVEIKR
notes: domain antibody (dAb): single human V kappa domain
B25: BMS3h-131-2 (other)
VL: DIQMTQSPSSLSASVGDRVTITCRADSSILWALAWYQQKPGKAPKLLIESSSGLQSGVPSRFSGSGSGTDFTLTISSLQPEDFATYYCVQNAVWPGTFGQGTKVEIKR
notes: as for B24
B26: BMS3h-56-7 (other)
VH: EVQLLESGGGLVQPGGSLRLSCAASGFTFRDYEMWWVRQAPGKGLERVSAINPQGTRTYYADSVKGRFTISRDNSKNTLYLQMNSLRAEDTSVYHCAKPPFIFGDWGPGTLVTVSS
notes: as for B1
B27: BMS3h-56-9 (other)
VH: EVQLLESGGGLVQPGGSLRLSCAASGFTFRDYEMWWVRQAPGKGLERVSAINPQGTRTYYADSVMGRFTISRDNSKNTLYLQMNSLRAEDTAVYYCAKLPFMFDDRGQGTLVTVSS
notes: as for B1
B28: BMS3h-43-3 (other)
VH: EVQLLESGGGLVQPGGSLRLSCTASGFTFNMYEMSWVRQAPGKGLEWVSGISRRGFTTYYADSVKGRFTISRDNFKNTLYLQMNSLRAEDTAVYYCAKEPITYDMRYARFDYGGQGTLVTVSS
notes: as for B1
B29: BMS3h-37-9 (other)
VH: EVQLLESGGGLVQPGGSLRLSCVASGFTFEWYEMQWVRQAPGNGLEWISAISGDGYRTYYADSVKGRFTISRDNSKNTLYLQMNSLRAEDTAVYYCAKELGYFDYWGRGTLVTVSS
notes: as for B1

For the first experiment, the target named is T1, biotinylated human CD40 (BMS) (human, UniProt P25942 21-193, limits assumed, biotinylated (sites not given)).
T1 construct: Ligand immobilised on the streptavidin BIAcore chip
T1 sequence (P25942 21-193 limits assumed): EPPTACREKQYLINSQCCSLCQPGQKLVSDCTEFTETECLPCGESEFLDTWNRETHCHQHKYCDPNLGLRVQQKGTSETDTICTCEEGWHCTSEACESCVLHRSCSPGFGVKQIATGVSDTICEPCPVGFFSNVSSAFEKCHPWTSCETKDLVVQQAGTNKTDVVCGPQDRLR
As to the kind of experiment: BIAcore SPR, immobilised biotinylated human CD40, 1:1 fit.
B1 registered a Kd of 300 nM, a koff of 0.0062 s⁻¹ and a kon of 21000 M⁻¹ s⁻¹.
In turn, B2 displayed a Kd of 190 nM, a koff of 0.0036 s⁻¹ and a kon of 19000 M⁻¹ s⁻¹.
In the case of B3, the Kd worked out at 180 nM, the koff was determined as 0.004 s⁻¹ and the kon turned out to be 23000 M⁻¹ s⁻¹.
The matching figures for B4: 240 nM, 0.00038 s⁻¹ and 1600 M⁻¹ s⁻¹.
The matching figures for B5: 840 nM, 0.0083 s⁻¹ and 9900 M⁻¹ s⁻¹.

The target of a further experiment is human CD40 (human, UniProt P25942 21-277). As to the kind of experiment: cell-based or functional assay.
human CD40, sequence (P25942 21-277 limits assumed): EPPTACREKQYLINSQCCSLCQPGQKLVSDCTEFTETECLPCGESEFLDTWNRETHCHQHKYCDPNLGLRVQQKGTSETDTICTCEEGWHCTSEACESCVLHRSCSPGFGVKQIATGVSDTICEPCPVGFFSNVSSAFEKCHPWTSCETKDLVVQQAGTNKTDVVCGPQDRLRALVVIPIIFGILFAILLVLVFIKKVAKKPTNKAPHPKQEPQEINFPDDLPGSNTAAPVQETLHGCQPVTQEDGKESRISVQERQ
As for B6, the “hIZCD40L-driven Human B Cell Proliferation EC50” value was 6500 nM.
As for B7, the “hIZCD40L-driven Human B Cell Proliferation EC50” value stood at 289 nM.
On the same count and under the same terms, next, B8: 201 nM.
As to B9, the “hIZCD40L-driven Human B Cell Proliferation EC50” value was 1380 nM.
On the same count and under the same terms, next, B10: 3200 nM.
Still for that read-out and setting: under B11 stands 1950 nM; under B12, 220 nM.
B13: the “hIZCD40L-driven Human B Cell Proliferation EC50” value was over 700 nM.
On the same count and under the same terms, next, B14: 380 nM.
For the molecule B15, the “CHO-hCD40L-driven DC Activation IL-12 EC50” value is over 7.7 µM and the “hIZCD40L-driven Human B Cell Proliferation EC50” value turned out to be 80 nM.
As to B16, the “hIZCD40L-driven Human B Cell Proliferation EC50” value is 11 nM.
As for B17, the “hIZCD40L-driven Human B Cell Proliferation EC50” value came out at 64 nM.
For B18, the “hIZCD40L-driven Human B Cell Proliferation EC50” value amounted to 9 nM.
Consider B19, for which the “hIZCD40L-driven Human B Cell Proliferation EC50” value worked out at 34 nM.
Take B20: the “hIZCD40L-driven Human B Cell Proliferation EC50” value worked out at 20 nM.
Still for that read-out and setting: under B21 stands 19 nM; under B22, 207 nM.

A further experiment concerns the target T1, biotinylated human CD40 (BMS). As to the kind of experiment: BIAcore SPR, immobilised biotinylated human CD40, 1:1 fit. This is another data set of the same source. In general terms: Surface plasmon resonance follows binding to a sensor surface in real time, without labels.
Protocol: A BIAcore™ 3000 instrument (GE Healthcare) was used to analyze the binding kinetics of CD40-specific dAbs to CD40. […] A second flow cell without any ligand immobilized served as a reference flow-cell for inline referencing. An appropriate doubling dilution series of each dAb to be analyzed was prepared in HBS-EP buffer (0.01 M HEPES pH 7.4 with 0.15 M NaCl, 3 mM EDTA and 0.005% v/v Surfactant P20, GE Healthcare). One hundred and eighty microlitres of each dAb were injected in duplicate using the instrument's KINJECT function. Each dAb was injected across the CD40-immobilised and reference flow-cells in series with inline subtraction of the signal from the reference cell. The experiment was performed at 25° C. and a flow rate of 30 μl/min of HBS-EP. After each injection had been completed, the dAb was allowed to dissociate from the ligand in buffer for 300 s before regeneration with a 10 μl injection of 10 mM glycine pH 2.0. A reference injection of HBS-EP buffer blank (containing no analyte) was also injected under the same conditions, to serve as a second reference for subtraction from each analyte trace. BIAevaluation 4.1 software (GE Healthcare) was used to subtract both the reference flow-cell trace and the buffer blank trace from each analyte trace. The same software was used to perform a simultaneous, global fit of a 1:1 (Langmuir) kinetic model to the association and dissociation phases of the analyte dilution series traces.
B23 showed a Kd of 300 nM, a koff of 0.0013 s⁻¹ and an association rate constant (kon) of 4400 M⁻¹ s⁻¹.
The matching figures for B24: 81 nM, 0.037 s⁻¹ and 460000 M⁻¹ s⁻¹.
The matching figures for B25: 21 nM, 0.0017 s⁻¹ and 79000 M⁻¹ s⁻¹.
The molecule B26 displayed a dissociation constant (Kd) of 3.5 nM, a koff of 0.00047 s⁻¹ and a kon of 130000 M⁻¹ s⁻¹.
The matching figures for B27: 2.6 nM, 0.00039 s⁻¹ and 150000 M⁻¹ s⁻¹.
The matching figures for B28: 19 nM, 0.00059 s⁻¹ and 31000 M⁻¹ s⁻¹.
The matching figures for B29: 12 nM, 0.00018 s⁻¹ and 15000 M⁻¹ s⁻¹.

One may read the Kd as the equilibrium constant for the complex coming apart. Lower therefore signals a tighter complex. By koff is commonly meant the first-order rate constant of dissociation. A word on the kon: it is the second-order rate constant of association. A higher kon goes with fast association.

Source of the values: patent US20200199244A1 (published 2020).
